Assay [1] concerns the target T1, CD47 (UniProt Q08722 19-323, limits assumed).
T1 construct: whole, on cells; also called CD47 on CD38^-CD47^+ Jurkat cells; CD47 on CD38^+CD47^+ NCI-H929 cells
As to the kind of experiment: flow cytometry on CD38^-CD47^+ Jurkat cells, FITC anti-human IgG-Fc. Background: In flow cytometry, cells or beads pass a laser one at a time.
Protocol: Cells were washed with cold 1% BSA-PBS twice, and then incubated with FITC-conjugated secondary antibody against human IgG-Fc (Cat #F9512, Sigma) for 45 min. Cells were washed twice and re-suspended in 200 μl PBS. Then, the cells were subject to FACS analysis using a flow cytometer (Merck Millipore, Guava® easyCyte 5HT).

Assay [2] concerns the target T1, CD47. Nature of the assay: FACS competition against SIRPα-mFc (3 µg/ml) on CD47^+CD38^+ NCI-H929 cells, PE anti-mouse IgG-Fc.
Protocol: The resultant mixtures were added to the wells of a 96-well plate each containing 50 μl 1×10⁶/ml CD47⁺CD38⁺ NCI-H929 cells, and the plate was incubated at 4° C. for 45 min. […] Cells were washed twice, re-suspended in 200 μl PBS, and subject to FACS analysis.

In general, EC50 refers to the concentration needed to bring the measured effect to its halfway point. A lower EC50 goes with greater potency. For orientation: IC50 means the concentration that gives 50% inhibition. High values mean weaker potency, low ones greater potency.

B1: IMM5602 (bispecific antibody, human IgG1, kappa)
heavy: QVQLVQSGAEVAKPGTSVKLSCKASGYTFTDYWMQWVKQRPGQGLEWIGTIYPGDGDTGYAQKFQGKATLTADKSSKTVYMHLSSLASEDSAVYYCARGDYYGSNSLDYWGQGTSVTVSSASTKGPSVFPLAPSSKSTSGGTAALGCLVKDYFPEPVTVSWNSGALTSGVHTFPAVLQSSGLYSLSSVVTVPSSSLGTQTYICNVNHKPSNTKVDKRVEPKSCDKTHTCPPCPAPELLGGPSVFLFPPKPKDTLMISRTPEVTCVVVDVSHEDPEVKFNWYVDGVEVHNAKTKPREEQYNATYRVVSVLTVLHQDWLNGKEYKCKVSNKALPAPIAATISKAKGQPREPQVYTLPPSREEMTKNQVSLTCLVKGFYPSDIAVEWESNGQPENNYKTTPPVLDSDGSFFLYSKLTVDKSRWQQGNVFSCSVMHEALHNHYTQKSLSLSPGK
light: not shown
notes: also called recombinant fusion protein; anti-CD38 heavy chain + SIRPαD1-linker-anti-CD38 light chain
With B1, in the assay with CD47 [1], the response was half-maximal at 21.9 nM (EC50).

B2: IMM5601 (bispecific antibody, human IgG1, kappa)
heavy: not shown
light: DIVMTQSHLSMSTSLGDPVSITCKASQDVSTVVAWYQQKPGQSPRRLIYSASYRYIGVPDRFTGSGAGTDFTFTISSVQAEDLAVYYCQQHYSPPYTFGGGTKLEIKRTVAAPSVFIFPPSDEQLKSGTASVVCLLNNFYPREAKVQWKVDNALQSGNSQESVTEQDSKDSTYSLSSTLTLSKADYEKHKVYACEVTHQGLSSPVTKSFNRGEC
notes: also called recombinant fusion protein; SIRPαD1-linker-anti-CD38 heavy chain + anti-CD38 light chain
In turn, B2 showed an EC50 with CD47 [1] of 14.1 nM. The same molecule returned an IC50 with CD47 [2] of 30.7 nM.

For the origin of these results see patent US20230110702A1 (IMMUNEONCO BIOPHARMACEUTICALS SHANGHAI, published 2023).
